Test results taken from paper PMC5080440.

Tests used:
[1] = target: TagRFP-T-CENP-C with the talin rod domain inserted into the middle (internal CENP-C-TR reporter) (Drosophila melanogaster | chicken) (UniProt P54939); assay: quantitative two-colour fluorescence imaging of recruitment to kinetochores in live cells; S2 cells co-expressing VH-EGFP and TagRFP-T-CENP-C-TR; metaphase cells, 0.1% DMSO (bioriented kinetochores, under force); VH-EGFP to TagRFP-T ratio divided by the correction ratio from TagRFP-T-CENP-C-EGFP; 25 °C
[2] = target: TagRFP-T-CENP-C with the talin rod domain at the C terminus (C-terminal CENP-C-TR control reporter) (Drosophila melanogaster | chicken) (UniProt P54939); assay: quantitative two-colour fluorescence imaging of recruitment to kinetochores in live cells; S2 cells co-expressing VH-EGFP and TagRFP-T-CENP-C-TR; 25 uM colchicine (unattached kinetochores, low/no force); VH-EGFP to TagRFP-T ratio divided by the correction ratio from TagRFP-T-CENP-C-EGFP; 25 °C
[3] = target: TagRFP-T-CENP-C with the talin rod domain inserted into the middle (internal CENP-C-TR reporter) (Drosophila melanogaster | chicken) (UniProt P54939); assay: as above

stoichiometry N (VH molecules per CENP-C-TR) [1]: 1.3
stoichiometry N (VH molecules per TR) [2]: 0.75
stoichiometry N (VH-EGFP molecules per TR) [3]: 0.9
B1: vinculin head domain (aa 1-258) fused to EGFP (domain or fragment)
chain: MPVFHTRTIESILEPVAQQISHLVIMHEEGEVDGKAIPDLTAPVSAVQAAVSNLVRVGKETVQTTEDQILKRDMPPAFIKVENACTKLVRAAQMLQADPYSVPARDYLIDGSRGILSGTSDLLLTFDEAEVRKIIRVCKGILEYLTVAEVVETMEDLVTYTKNLGPGMTKMAKMIDERQQELTHQEHRVMLVNSMNTVKELLPVLISAMKIFVTTKNTKSQGIEEALKNRNFTVEKMSAEINEIIRVLQLTSWDEDAW
